Measurements published in patent publication US20230183354A1 (IMMIOS HOLDING B V, published 2023).
Blank lines part the entries; values can stand above or below the molecule they belong to.

What was measured:
[1] = target: human CD103 (integrin Alpha-E) / human integrin Beta-7 heterodimer on cells (human) (UniProt P38570); test: flow cytometry, tumor digest OC433, AF647-conjugated control Fab, direct read-out
[2] = target: human CD103 (integrin Alpha-E) / human integrin Beta-7 heterodimer on cells (human) (UniProt P38570); test: flow cytometry, tumor digest OC433, CD3 positive cells; Control panel Q2 0,53
[3] = target: human CD103 (integrin Alpha-E) / human integrin Beta-7 heterodimer on cells (human) (UniProt P38570); test: flow cytometry competition on CD103+CD8+ T cells; pre-incubation with unlabeled 05A; table n=1
[4] = target: human CD103 (integrin Alpha-E) / human integrin Beta-7 heterodimer on cells (human) (UniProt P38570); test: flow cytometry competition on CD103+CD8+ T cells; pre-incubation with unlabeled IgG (f2); table n=2
[5] = target: human CD103 (integrin Alpha-E) / human integrin Beta-7 heterodimer on cells (human) (UniProt P38570); test: flow cytometry competition on CD103+CD8+ T cells; pre-incubation with unlabeled 03A; table n=1
[6] = target: human CD103 (integrin Alpha-E) / human integrin Beta-7 heterodimer on cells (human) (UniProt P38570); test: flow cytometry competition on CD103+CD8+ T cells; pre-incubation with unlabeled 02A; table n=1
[7] = target: human CD103 (integrin Alpha-E) / human integrin Beta-7 heterodimer on cells (human) (UniProt P38570); test: flow cytometry competition on CD103+CD8+ T cells; pre-incubation with unlabeled IgG (f2); table n=1
[8] = target: human CD103 (integrin Alpha-E) / human integrin Beta-7 heterodimer on cells (human) (UniProt P38570); test: flow cytometry competition on CD103+CD8+ T cells; pre-incubation with unlabeled 07A; table n=1
[9] = target: human CD103 (integrin Alpha-E) / human integrin Beta-7 heterodimer on cells (human) (UniProt P38570); test: flow cytometry competition on CD103+CD8+ T cells; pre-incubation with unlabeled 06A; table n=1
[10] = target: human CD103 (integrin Alpha-E) / human integrin Beta-7 heterodimer on cells (human) (UniProt P38570); test: flow cytometry competition on CD103+CD8+ T cells; pre-incubation with unlabeled 02A; table n=2
[11] = target: human CD103 (integrin Alpha-E) / human integrin Beta-7 heterodimer on cells (human) (UniProt P38570); test: flow cytometry competition on CD103+CD8+ T cells; pre-incubation with unlabeled 06A; table n=2
[12] = target: human CD103 (integrin Alpha-E) / human integrin Beta-7 heterodimer on cells (human) (UniProt P38570); test: flow cytometry competition on CD103+CD8+ T cells; pre-incubation with unlabeled 05A; table n=2
[13] = target: human CD103 (integrin Alpha-E) / human integrin Beta-7 heterodimer on cells (human) (UniProt P38570); test: flow cytometry competition on CD103+CD8+ T cells; pre-incubation with unlabeled 01A; table n=1
[14] = target: human CD103 (integrin Alpha-E) / human integrin Beta-7 heterodimer on cells (human) (UniProt P38570); test: flow cytometry competition on CD103+CD8+ T cells; pre-incubation with unlabeled BERACT; table n=2
[15] = target: human CD103 (integrin Alpha-E) / human integrin Beta-7 heterodimer on cells (human) (UniProt P38570); test: flow cytometry competition on CD103+CD8+ T cells; pre-incubation with unlabeled 07A; table n=2
[16] = target: human CD103 (integrin Alpha-E) / human integrin Beta-7 heterodimer on cells (human) (UniProt P38570); test: flow cytometry, tumor digest OC433, CD3 positive cells; Control panel Q3 2,12
[17] = target: human CD103 (integrin Alpha-E) / human integrin Beta-7 heterodimer on cells (human) (UniProt P38570); test: flow cytometry competition on CD103+CD8+ T cells; pre-incubation with unlabeled MCA708 (f4); table n=2
[18] = target: human CD103 (integrin Alpha-E) / human integrin Beta-7 heterodimer on cells (human) (UniProt P38570); test: flow cytometry competition on CD103+CD8+ T cells; pre-incubation with unlabeled 03A; table n=2
[19] = target: human CD103 (integrin Alpha-E) / human integrin Beta-7 heterodimer on cells (human) (UniProt P38570); test: flow cytometry competition on CD103+CD8+ T cells; pre-incubation with unlabeled 01A; table n=2
[20] = target: human CD103 (integrin Alpha-E) / human integrin Beta-7 heterodimer on cells (human) (UniProt P38570); test: flow cytometry competition on CD103+CD8+ T cells; pre-incubation with unlabeled MCA708 (f4); table n=1
[21] = target: human CD103 (integrin Alpha-E) / human integrin Beta-7 heterodimer on cells (human) (UniProt P38570); test: flow cytometry competition on CD103+CD8+ T cells; pre-incubation with unlabeled BERACT; table n=1
[22] = target: human CD103 (integrin Alpha-E) / human integrin Beta-7 heterodimer on cells (human) (UniProt P38570); test: flow cytometry, tumor digest OC433, non-labeled control Fab with secondary anti-Fab reagent (APC); secondary antibody alone Q3 2,44
[23] = target: human CD103 (integrin Alpha-E) / human integrin Beta-7 heterodimer on cells (human) (UniProt P38570); test: flow cytometry, tumor digest OC433, non-labeled control Fab with secondary anti-Fab reagent (APC); secondary antibody alone Q2 4,65
[24] = target: T1, human CD103 (integrin Alpha-E) / human integrin Beta-7 heterodimer on cells (human, UniProt P38570 19-1179; P26010 20-798); test: cell ELISA on CHO.K1-humanCD103/beta7 cells, abs 450-610
T1 construct: The same id is used for native CD103 on human CD103+CD8+ T cells (tumor digests, TGF-beta induced T cells); the assay field tells which cells; also called hCD103/hBeta7; CHO.K1-hCD103/hBeta7

[25] = target: T2, human integrin Alpha-4 / human integrin Beta-7 heterodimer on CHO-K1 cells (human, UniProt P13612 34-1032; P26010 20-798); test: cell ELISA on CHO.K1-humanAlpha4/beta7 cells, abs 450-610
T2 construct: Used as the control for reactivity with hBeta7; also called hAlpha4/hBeta7; CHO.K1-hAlpha4/hBeta7

murine CD103 = target: T3, murine CD103 (mouse, UniProt Q60677 20-1167); test: flow cytometry on mouse spleen and thymus cells
T3 construct: whole, on cells; also called murine CD103+ T cells; mouse CD103
T3 sequence (looked up): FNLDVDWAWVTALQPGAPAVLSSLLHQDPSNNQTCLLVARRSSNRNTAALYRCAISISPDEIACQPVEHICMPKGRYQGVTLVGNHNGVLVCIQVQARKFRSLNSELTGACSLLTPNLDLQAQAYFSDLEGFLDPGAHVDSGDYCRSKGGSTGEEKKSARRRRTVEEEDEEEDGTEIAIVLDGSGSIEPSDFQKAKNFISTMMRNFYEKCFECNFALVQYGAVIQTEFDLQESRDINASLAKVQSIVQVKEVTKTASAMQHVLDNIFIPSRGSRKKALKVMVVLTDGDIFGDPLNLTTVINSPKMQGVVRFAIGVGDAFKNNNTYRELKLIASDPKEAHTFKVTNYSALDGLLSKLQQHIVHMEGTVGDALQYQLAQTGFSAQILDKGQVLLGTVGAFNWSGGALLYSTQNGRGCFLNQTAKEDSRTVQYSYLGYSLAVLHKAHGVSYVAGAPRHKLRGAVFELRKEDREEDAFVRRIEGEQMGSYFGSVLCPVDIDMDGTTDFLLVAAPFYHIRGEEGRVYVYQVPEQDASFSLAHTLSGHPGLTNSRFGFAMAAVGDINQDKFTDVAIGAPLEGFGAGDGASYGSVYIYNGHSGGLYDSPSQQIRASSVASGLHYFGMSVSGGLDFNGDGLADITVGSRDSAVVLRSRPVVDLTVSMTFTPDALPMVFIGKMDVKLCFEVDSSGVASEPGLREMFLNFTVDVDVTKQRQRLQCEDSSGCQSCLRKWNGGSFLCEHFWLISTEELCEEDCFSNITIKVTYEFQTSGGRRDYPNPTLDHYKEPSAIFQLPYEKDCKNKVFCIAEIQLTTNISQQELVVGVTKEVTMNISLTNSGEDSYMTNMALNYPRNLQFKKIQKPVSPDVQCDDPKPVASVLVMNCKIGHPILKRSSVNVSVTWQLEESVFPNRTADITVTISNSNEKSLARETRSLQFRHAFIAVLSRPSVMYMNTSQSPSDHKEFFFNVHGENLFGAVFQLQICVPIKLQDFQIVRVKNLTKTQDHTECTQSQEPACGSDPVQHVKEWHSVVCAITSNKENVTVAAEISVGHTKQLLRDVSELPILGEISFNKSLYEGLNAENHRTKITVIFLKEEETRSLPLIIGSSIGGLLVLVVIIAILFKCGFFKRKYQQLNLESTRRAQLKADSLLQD
Method: Additional aliquots were stained with relevant isotype controls or as fluorescence minus one controls (“FMO” controls are cells stained with all the fluorophores minus one fluorophore; the relevant isotype controls contain either a directly labeled unspecific isotype antibody or an unspecific isotype antibody combined with secondary detection reagent). Percentage binding of fluorescently labeled mAbs was determined using flow cytometry. Maximum binding was set at 100%. […] Data analysis was performed with FlowJo v10 (Tree Star) and surface receptor levels were expressed as mean fluorescent intensity (MFI).

- % of CD3 positive cells in Q2 (CD8+ CD103+) [2]: 13.4%
- % binding of the fluorescently labeled mAb (IgG pre-incubation = 100) [3]: 50.9%
- % binding of the fluorescently labeled mAb (IgG pre-incubation = 100) [4]: 100%
- % binding of the fluorescently labeled mAb (IgG pre-incubation = 100) [5]: 97%
- % binding of the fluorescently labeled mAb (IgG pre-incubation = 100) [6]: 1.4%
- % binding of the fluorescently labeled mAb (IgG pre-incubation = 100) [7]: 100%
- % binding of the fluorescently labeled mAb (IgG pre-incubation = 100) [8]: 27.2%
- % binding of the fluorescently labeled mAb (IgG pre-incubation = 100) [9]: 96.6%
- % binding of the fluorescently labeled mAb (IgG pre-incubation = 100) [10]: 2.9%
- % binding of the fluorescently labeled mAb (IgG pre-incubation = 100) [11]: 103%
- % binding of the fluorescently labeled mAb (IgG pre-incubation = 100) [12]: 60.6%
- % binding of the fluorescently labeled mAb (IgG pre-incubation = 100) [13]: 0.9%
- % binding of the fluorescently labeled mAb (IgG pre-incubation = 100) [14]: 3.5%
- % binding of the fluorescently labeled mAb (IgG pre-incubation = 100) [15]: 29.2%
- % of CD3 positive cells in Q3 (CD8- CD103+) [16]: 7.75%
- % binding of the fluorescently labeled mAb (IgG pre-incubation = 100) [17]: 109%
- % binding of the fluorescently labeled mAb (IgG pre-incubation = 100) [18]: 101%
- % binding of the fluorescently labeled mAb (IgG pre-incubation = 100) [19]: 2.3%
- % binding of the fluorescently labeled mAb (IgG pre-incubation = 100) [20]: 115%
- % binding of the fluorescently labeled mAb (IgG pre-incubation = 100) [21]: 1.9%
Molecule: CD103 (Ber-ACT8) antibody (BD)

- EC50 (read off the curve) [24]: ~10 ng/mL
- binding result [25]: no binding
- binding result (murine CD103): no binding
B1: hCD103.02A (antibody, V domains shown)
VH: EVQLQESGPSLVKPSQTLSLTCSVTGDSITSGYWNWIRKFPGNKLEYMGYITYSGSTYYNPSLKSRISITRDTSKNQYYLQFNSVTTEDTATYYCARGYYGSDAMDYWGQGTSVTVSS
VL: DIVMTQSHKFMSTSVGDRVSITCKASQDVSTAVAWYQQKPGQSPKLLIYSASYRYTGVPDRFTGSGSGTDFTFTISSVQAEDLAVYYCQQHYSPPWTFGGGTKLEIK
notes: also called clone 02A

Second part, the molecule before the results:

Molecule: Alexa647.mFab control
- % of cells in Q2 (CD8+ CD103+) [1]: 2.58%
- % of cells in Q3 (CD8- CD103+) [1]: 1.29%

Molecule: hFab isotype
- % of cells in Q3 (CD8- CD103+) [22]: 3.71%
- % of cells in Q2 (CD8+ CD103+) [23]: 4.64%
